The source of these data is US20250333542A1 (Hoffmann-La Roche, published 2025).

The target in experiment [1] is T1, Fc (kih)-IFNGR1 monomer (P1AF7104) (UniProt P15260 18-245).
T1 construct: Used as the soluble analyte in SPR; not shown: Fc (kih) part
T1 sequence (P15260 whole entry, species assumed, looked up): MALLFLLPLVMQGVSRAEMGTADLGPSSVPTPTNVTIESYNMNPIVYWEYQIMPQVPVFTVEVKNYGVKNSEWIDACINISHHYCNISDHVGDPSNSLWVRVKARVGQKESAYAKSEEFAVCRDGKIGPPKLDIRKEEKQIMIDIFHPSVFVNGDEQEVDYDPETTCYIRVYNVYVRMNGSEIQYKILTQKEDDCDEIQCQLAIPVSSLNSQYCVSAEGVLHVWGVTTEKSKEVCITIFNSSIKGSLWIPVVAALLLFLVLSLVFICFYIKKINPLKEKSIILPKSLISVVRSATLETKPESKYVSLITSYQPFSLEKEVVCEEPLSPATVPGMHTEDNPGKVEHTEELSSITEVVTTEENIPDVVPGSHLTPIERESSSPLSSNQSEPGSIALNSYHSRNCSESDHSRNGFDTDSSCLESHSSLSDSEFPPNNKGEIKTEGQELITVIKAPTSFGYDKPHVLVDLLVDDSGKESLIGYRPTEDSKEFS
Put plainly: SPR (Biacore 8K, 25 C), biotinylated Fc(kih)-IFNG captured on SA chip, Fc(kih)-IFNGR1 monomer as analyte, 1:1 Langmuir fit. How it is done: (§1) The binding behaviour of IFNG variants towards IFNGR1 and IFNGR1/2 was assessed by surface plasmon resonance (SPR). SPR experiments were performed on a Biacore 8K device at 25° C. with HBS-EP as running buffer (0.01 M HEPES pH 7.4, 0.15 M NaCl, 3 mM EDTA, 0.005% Surfactant P20, Biacore, Freiburg/Germany). […] IFNG mutation series compounds were immobilised at a concentration of 25 nM, 80 s contact time and 10 μL/min. Immobilisation levels up to 450 resonance units (RU) were used. Subsequently, decreasing concentrations (800-3.13 nM) of Fc (kih)-IFNGR1 monomer or Fc (kih)-IFNGR1/2 heterodimer were injected as a second analyte with a flow rate of 30 μL/min over 120 seconds and dissociation was monitored for 500 s. Bulk refractive index differences were corrected for by subtracting the response obtained in a reference flow cell, where no protein was immobilised. […]
(§2) To further evaluate analogous properties of wild-type IFNG and our engineered compound with C-terminal KRKRP (SEQ ID NO:1), we determined the binding affinities of IFNG variants towards IFNG receptors by SPR. […] As second analytes, either IFNGR1 monomer (P1AF7104) or IFNGR1/2 heterodimer (P1AF8126) were passed through the flow cell at different concentrations and dissociation constants (KD) were calculated based on observed association and dissociation behaviour.
For orientation: Surface plasmon resonance follows binding to a sensor surface in real time, without labels.

Experiment [2] deals with T2, Fc (kih)-IFNGR1/2 heterodimer (P1AF8126) (UniProt P15260 18-245; P38484 28-247, limits assumed).
T2 construct: Used as the soluble analyte in SPR; also called Fc (kih)-IFNGR1/R2 heterodimer; IFNGR1/R2; not shown: Fc (kih) chain
T2 sequence (looked up) 1: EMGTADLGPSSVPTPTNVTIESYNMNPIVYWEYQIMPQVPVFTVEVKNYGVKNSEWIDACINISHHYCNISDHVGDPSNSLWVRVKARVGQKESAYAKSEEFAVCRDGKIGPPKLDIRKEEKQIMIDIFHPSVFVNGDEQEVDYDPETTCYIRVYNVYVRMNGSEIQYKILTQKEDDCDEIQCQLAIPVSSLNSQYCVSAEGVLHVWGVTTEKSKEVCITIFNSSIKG
T2 sequence (looked up) 2: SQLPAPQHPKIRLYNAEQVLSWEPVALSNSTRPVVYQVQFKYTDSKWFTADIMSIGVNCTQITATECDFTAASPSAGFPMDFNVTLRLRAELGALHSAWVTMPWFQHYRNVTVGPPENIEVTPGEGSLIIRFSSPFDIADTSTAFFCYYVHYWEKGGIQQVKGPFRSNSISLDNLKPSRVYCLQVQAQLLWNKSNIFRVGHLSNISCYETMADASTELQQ
Nature of the experiment: SPR (Biacore 8K, 25 C), biotinylated Fc(kih)-IFNG captured on SA chip, Fc(kih)-IFNGR1/2 heterodimer as analyte, 1:1 Langmuir fit; IFNG KRKRP variant, IFNGR1/2 heterodimer as analyte. How it is done:
as §1, §2

B1: Fc (kih)-IFNG KRKRP (P1AG1550) (Fc fusion)
chain: QDPYVKEAENLKKYFNAGHSDVADNGTLFLGILKNWKEESDRKIMQSQIVSFYFKLFKNFKDDQSIQKSVETIKEDMNVKFFNSNKKKRDDFEKLTNYSVTDLNVQRKAIHELIQVMAELSPAAKTGKRKRP
modifications: biotinylated (site not stated)
notes: Produced as a C-terminal Fc (kih)-fusion protein; not shown: Fc (kih) chain (knob: S354C, T366W; hole: Y349C, T366S, L368A, Y410V as printed) and any linker
With B1, the equilibrium dissociation constant (Kd) (usually the free concentration of one partner at which half of the binding sites on the other are occupied at equilibrium, for simple one-to-one binding) in experiment [1] turned out to be 154 nM; in experiment [2] it was 54.4 nM.
